Assay results from patent US20230313187A1, “MODIFICATIONS OF MAMMALIAN CELLS USING ARTIFICIAL MICRO-RNA TO ALTER THEIR PROPERTIES AND THE COMPOSITIONS OF THEIR PRODUCTS” (DNA TWOPOINTO INC., priority 2020, published 2023).

Columns and labels:
[1] = test system: Cricetulus griseus interferon receptor subunit 1 mRNA; test: Expression of human interferon beta from CHO cells (ELISA), amiRNA to interferon receptor subunit 1; assay type: cell-based; conditions: for Titer: 10-day fed batch
Excerpt: One multi-hairpin amiRNA, with nucleotide sequence SEQ ID NO: 598, comprised four hairpins; the first hairpin comprised a guide strand with nucleotide sequence SEQ ID NO: 95, immediately followed by a loop with nucleotide sequence SEQ ID NO: 241 and passenger strand with nucleotide sequence SEQ ID NO: 180, the second hairpin comprised a guide strand with nucleotide sequence SEQ ID NO: 97, immediately followed by a loop with nucleotide sequence SEQ ID NO: 241 and passenger strand with nucleotide sequence SEQ ID NO: 182, the third hairpin comprised a guide strand with nucleotide sequence SEQ ID NO: 96, immediately followed by a loop with nucleotide sequence SEQ ID NO: 241 and a passenger strand with nucleotide sequence SEQ ID NO: 181, the fourth hairpin comprised a guide strand with nucleotide sequence SEQ ID NO: 98, immediately followed by a loop with nucleotide sequence SEQ ID NO: 241 and a passenger strand with nucleotide sequence SEQ ID NO: 183. Each of these four guide strand sequences was a 22 base sequence that was an exact reverse complement of a different region within the Cricetulus griseus interferon receptor subunit 1 mRNA (with nucleotide sequence SEQ ID NO: 19. Each passenger strand sequence was complementary to its corresponding guide strand sequence, except that the bases in the passenger strand sequences corresponding to the 5′ base of the guide strand and the twelfth base of the guide strand were changed to be non-complementary.
(§1) Each of the five polynucleotides was a transposon which further comprised a left end comprising a 5′-TTAA-3′ target sequence immediately followed by an ITR with SEQ ID NO: 423 (which is an embodiment of SEQ ID NO: 421) and additional sequence with SEQ ID NO: 417 and a right end comprising SEQ ID NO: 419 immediately followed by an ITR with SEQ ID NO: 424 (which is an embodiment of SEQ ID NO: 422) immediately followed by a 5′-TTAA-3′ target sequence. Each transposon further comprised a gene encoding a glutamine synthetase selectable marker. […] Each transposon further comprised the same promoter operably linked to an open reading frame encoding human interferon beta. […]
(§2) Transposons were co-transfected with mRNA encoding transposase with polypeptide sequence SEQ ID NO: 502 into a CHO host lacking a functional glutamine synthetase gene. […] Interferon beta levels in the culture supernatant were measured using an ELISA assay.
(§3) Table 11. […] Transposons for the expression of human interferon beta were constructed, transfected and expressed as described in Section 6.4.1. The amiRNA SEQ ID NO is shown in column A. Following a 10-day fed batch of duplicate cultures for each sample, the concentration of interferon was measured by ELISA. Measured interferon concentrations in culture supernatants are show in columns B and C. […]

[2] = test system: Cricetulus griseus interferon receptor subunit 2 mRNA; test: Expression of human interferon beta from CHO cells (ELISA), amiRNA to interferon receptor subunit 2; assay type: cell-based; conditions: for Titer: 10-day fed batch
Excerpt: One multi-hairpin amiRNA, with nucleotide sequence SEQ ID NO: 599, comprised four hairpins; the first hairpin comprised a guide strand with nucleotide sequence SEQ ID NO: 103, immediately followed by a loop with nucleotide sequence SEQ ID NO: 241 and passenger strand with nucleotide sequence SEQ ID NO: 188; the second hairpin comprised a guide strand with nucleotide sequence SEQ ID NO: 104, immediately followed by a loop with nucleotide sequence SEQ ID NO: 241 and passenger strand with nucleotide sequence SEQ ID NO: 189; the third hairpin comprised a guide strand with nucleotide sequence SEQ ID NO: 102, immediately followed by a loop with nucleotide sequence SEQ ID NO: 241 and a passenger strand with nucleotide sequence SEQ ID NO: 187; the fourth hairpin comprised a guide strand with nucleotide sequence SEQ ID NO: 105, immediately followed by a loop with nucleotide sequence SEQ ID NO: 241 and a passenger strand with nucleotide sequence SEQ ID NO: 190. Each of these four guide strand sequences was a 22 base sequence that was an exact reverse complement of a different region within the Cricetulus griseus interferon receptor subunit 2 mRNA (with nucleotide sequence SEQ ID NO: 20). Each passenger strand sequence was complementary to its corresponding guide strand sequence, except that the bases in the passenger strand sequences corresponding to the 5′ base of the guide strand and the twelfth base of the guide strand were changed to be non-complementary.
as §1, §2, §3

[3] = control transposon expressed 48 μg/ml
[4] = interferon beta in supernatant, first of duplicate cultures
[5] = interferon beta, second of duplicate cultures

Molecule	Average Titer ([1]; average of duplicate cultures) [µg/mL]	interferon beta expression compared with the control transposon [1, 3]	Titer [1, 4] [µg/mL]	Titer [1, 5] [µg/mL]	Average Titer ([2]; average of duplicate cultures) [µg/mL]	interferon beta expression compared with the control transposon [2, 3]	Titer [2, 4] [µg/mL]	Titer [2, 5] [µg/mL]
SEQ ID NO: 598: four-hairpin amiRNA, guides SEQ ID NOs 95, 97, 96, 98 to Cricetulus griseus interferon receptor subunit 1 mRNA (nucleic acid) ATCTGATCTTCTGAAGAAAATATATTTCTTTTTATTCATAGCTCTTAACTAGTGGTGATAGCAATGTCAGCAGTGCCTTAAAATAACACACAAGAGCCATGTGAAGCCACAGATGATGGCTCTTGCGTGTTATTTTCAAGTAAGGTTGACCATACTCTACTCTAGTTATATTCTTTAGGCACGAATGTGTGTTTAAAAAAAATAAAAACTAGTGGTGATAGCAATGTCAGCAGTGCCTTTAAACAGTAAGTAGTCTCTGGGTGAAGCCACAGATGCCAGAGACTAATTACTGTTTACAAGTAAGGTTGACCATACTCTACTCTAGAGTTGTGTTTTAATGTATATTAATGTTACTAATGTGTTTACTAGTGGTGATAGCAATGTCAGCAGTGCCTTTGGGTGTTAATAAAAAGGCAGGTGAAGCCACAGATGCTGCCTTTTTCTTAACACCCACAAGTAAGGTTGACCATACTCTACTCTAGGTTATTTTTAGTATGATTCTGTAAAAATGAATTAATACTAACTAGTGGTGATAGCAATGTCAGCAGTGCCTTTCATTTTGACATACATACTTGGTGAAGCCACAGATGCAAGTATGTACGTCAAAATGACAAGTAAGGTTGACCATACTCTACTCTAGTCAGTTTTATTGATAGTCTTTTCAGTATTATTGATAATCTT	34.5	a small decrease in interferon beta expression	22.8	46.1	–	–	–	–
SEQ ID NO: 599: four-hairpin amiRNA, guides SEQ ID NOs 103, 104, 102, 105 to Cricetulus griseus interferon receptor subunit 2 mRNA (nucleic acid) ATCTGATCTTCTGAAGAAAATATATTTCTTTTTATTCATAGCTCTTAACTAGTGGTGATAGCAATGTCAGCAGTGCCTAAGACTATCAGCAAGAACCAGGGTGAAGCCACAGATGCCTGGTTCTTACTGATAGTCTCAAGTAAGGTTGACCATACTCTACTCTAGTTATATTCTTTAGGCACGAATGTGTGTTTAAAAAAAATAAAAACTAGTGGTGATAGCAATGTCAGCAGTGCCTTTGAAGATAACTTTGTCCCCGGGTGAAGCCACAGATGCCGGGGACAACGTTATCTTCACAAGTAAGGTTGACCATACTCTACTCTAGAGTTGTGTTTTAATGTATATTAATGTTACTAATGTGTTTACTAGTGGTGATAGCAATGTCAGCAGTGCCTTAAACAACAATGGATCCCCAAAGTGAAGCCACAGATGTTTGGGGATCAATTGTTGTTTCAAGTAAGGTTGACCATACTCTACTCTAGGTTATTTTTAGTATGATTCTGTAAAAATGAATTAATACTAACTAGTGGTGATAGCAATGTCAGCAGTGCCTTTGCTCATGATTGTGAACCAAAGTGAAGCCACAGATGTTTGGTTCACCATCATGAGCACAAGTAAGGTTGACCATACTCTACTCTAGTCAGTTTTATTGATAGTCTTTTCAGTATTATTGATAATCTT	–	–	–	–	99.3	as much as twice the expression levels of interferon beta as the control transposon	92.9	105.7
